Experimental data reported in US20020055130.

Target: recombinant kinase inactive SEK1 (SEK1 K→M)

B1: HA-tagged full length mouse MEKK1 (196 kDa; plasmid MEKK1.cp4, expressed in HEK293 cells) (protein)
chain: MGYPYDVDYASMAAAAGDRASSSGFPGAAAASPEAGGGGGGGGALQGSGAPAAGAAGLLREPGSAGRERADWRRRQLRKVRSVELDQLPEQPLFLAAASPPCPSTSPSPEPADAAAGASRFQPAAGPPPPGAASRCGSHSAELAAARDSGARSPAGAEPPSAAAPSGREMENKETLKGLHKMEDRPEERMIREKLKATCMPAWKHEWLERRNRRGPVVVKPIPIKGDGSEVNNLAAEPQGEGQAGSAAPAPKGRRSPSPGSSPSGRSVKPESPGVRRKRVSPVPFQSGRITPPRRAPSPDGFSPYSPEETSRRVNKVMRARLYLLQQIGPNSFLIGGDSPDNKYRVFIGPQNCSCGRGAFCIHLLFVMLRVFQLEPSDPMLWRKTLKNFEVESLFQKYHSRRSSRIKAPSRNTIQKFVSRMSNSHTLSSSSTSTSSSENSIKDEEEQMCPICLLGMLDEESLTVCEDGCRNKLHHHCMSIWAEECRRNREPLICPLCRSKWRSHDFYSHELSSPVESPASLRAVQQPSSPQQPVAGSQRRNQESSFNLTHFGTQQIPSAYKDLAEPWIQVFGMELVGCLFSRNWNVREMALRRLSHDVSGALLLANGESTGNSGGGSGGSLSAGAASGSSQPSISGDVVEACCSVLSIVCADPVYKVYVAALKTLRAMLVYTPCHSLAERIKLQRLLRPVVDTILVKCADANSRTSQLSISTVLELCKGQAGELAVGREILKAGSIGVGGVDYVLSCILGNQAESNNWQELLGRLCLIDRLLLEFPAEFYPHIVSTDVSQAEPVEIRYKKLLSLLTFALQSIDNSHSMVGKLSRRIYLSSARMVTAVPAVFSKLVTMLNASGSTHFTRMRRRLMAIADEVEIAEVIQLGVEDTVDGHQDSLQAVAPTSCLENSSLEHTVHREKTGKGLSATRLSASSEDISDRLAGVSVGLPSSTTTEQPKPAVQTKGRPHSQCLNSSPLSHAQLMFPAPSAPCSSAPSVPDISKHRPQAFVPCKIPSASPQTQRKFSLQFQRNCSEHRDSDQLSPVFTQSRPPPSSNIHRPKPSRPVPGSTSKLGDATKSSMTLDLGSASRCDDSFGGGGNSGNAVIPSDETVFTPVEDKCRLDVNTELNSSIEDLLEASMPSSDTTVTFKSEVAVLSPEKAENDDTYKDDVNHNQKCKEKMEAEEEEALAIAMAMSASQDALPIVPQLQVENGEDIIIIQQDTPETLPGHTKAKQPYREDAEWLKGQQIGLGAFSSCYQAQDVGTGTLMAVKQVTYVRNTSSEQEEVVEALREEIRMMGHLNHPNIIRMLGATCEKSNYNLFIEWMAGGSVAHLLSKYGAFKESVVINYTEQLLRGLSYLHENQIIHRDVKGANLLIDSTGQRLRIADFGAAARLASKGTGAGEFQGQLLGTIAFMAPEVLRGQQYGRSCDVWSVGCAIIEMACAKPPWNAEKHSNHLALIFKIASATTAPSIPSHLSPGLRDVAVRCLELQPQDRPPSRELLKHPVFRTTW
phosphorylation of SEK1 K→M by immunoprecipitates (in vitro kinase assay): When the full length MEKK1 protein was immunoprecipitated by the 12CA5 antibody it had measureable autophosphorylation and activity towards SEK1

B2: MEKK1 cleavage fragment C (protein)
chain: GHQDSLQAVAPTSCLENSSLEHTVHREKTGKGLSATRLSASSEDISDRLAGVSVGLPSSTTTEQPKPAVQTKGRPHSQCLNSSPLSHAQLMFPAPSAPCSSAPSVPDISKHRPQAFVPCKIPSASPQTQRKFSLQFQRNCSEHRDSDQLSPVFTQSRPPPSSNIHRPKPSRPVPGSTSKLGDATKSSMTLDLGSASRCDDSFGGGGNSGNAVIPSDETVFTPVEDKCRLDVNTELNSSIEDLLEASMPSSDTTVTFKSEVAVLSPEKAENDDTYKDDVNHNQKCKEKMEAEEEEALAIAMAMSASQDALPIVPQLQVENGEDIIIIQQDTPETLPGHTKAKQPYREDAEWLKGQQIGLGAFSSCYQAQDVGTGTLMAVKQVTYVRNTSSEQEEVVEALREEIRMMGHLNHPNIIRMLGATCEKSNYNLFIEWMAGGSVAHLLSKYGAFKESVVINYTEQLLRGLSYLHENQIIHRDVKGANLLIDSTGQRLRIADFGAAARLASKGTGAGEFQGQLLGTIAFMAPEVLRGQQYGRSCDVWSVGCAIIEMACAKPPWNAEKHSNHLALIFKIASATTAPSIPSHLSPGLRDVAVRCLELQPQDRPPSRELLKHPVFRTTW
phosphorylation of SEK1 K→M by immunoprecipitates (in vitro kinase assay): a stronger SEK1 phosphorylation signal was detected
